Measured values published in patent US9816117B2, “Methods, reagents and cells for biosynthesizing compounds” (INVISTA North America S.á r.l., priority 2014, dated 2017).

Legend:
[1] = ω-transaminase enzyme activity assay, reverse direction (6-aminohexanoate to adipate semialdehyde); format: biochemical; conditions: cell free extract; 10 mM 6-aminohexanoate, 10 mM pyruvate; 25° C., 24 h; against empty vector control (FIG. 17)
Method: (§1) A nucleotide sequence encoding a His-tag was added to the genes from Chromobacterium violaceum, Pseudomonas aeruginosa, Pseudomonas syringae, Rhodobacter sphaeroides, and Vibrio fluvialis encoding the ω-transaminases of SEQ ID NOs: 7, 8, 9, 10 and 12, respectively (see FIG. 9) such that N-terminal HIS tagged w-transaminases could be produced. Each of the resulting modified genes was cloned into a pET21a expression vector under control of the T7 promoter and each expression vector was transformed into a BL21[DE3] E. coli host. The resulting recombinant E. coli strains were cultivated at 37° C. in a 250 mL shake flask culture containing 50 mL LB media and antibiotic selection pressure, with shaking at 230 rpm. Each culture was induced overnight at 16° C. using 1 mM IPTG.
(§2) The pellet from each induced shake flask culture was harvested via centrifugation. Each pellet was resuspended and lysed via sonication. The cell debris was separated from the supernatant via centrifugation and the cell free extract was used immediately in enzyme activity assays.
Enzyme activity assays in the reverse direction (i.e., 6-aminohexanoate to adipate semialdehyde) were performed in a buffer composed of a final concentration of 50 mM HEPES buffer (pH=7.5), 10 mM 6-aminohexanoate, 10 mM pyruvate and 100 μM pyridoxyl 5′ phosphate. Each enzyme activity assay reaction was initiated by adding cell free extract of the ω-transaminase gene product or the empty vector control to the assay buffer containing the 6-aminohexanoate and incubated at 25° C. for 24 h, with shaking at 250 rpm. The formation of L-alanine from pyruvate was quantified via RP-HPLC.

[2] = ω-transaminase enzyme activity assay, forward direction (adipate semialdehyde to 6-aminohexanoate); format: biochemical; conditions: cell free extract; 10 mM adipate semialdehyde, 10 mM L-alanine; 25° C., 4 h; against empty vector control (FIG. 18)
Method: as §1, §2
Enzyme activity in the forward direction (i.e., adipate semialdehyde to 6-aminohexanoate) was confirmed for the transaminases of SEQ ID NO 7, SEQ ID NO 8, SEQ ID NO 9, SEQ ID NO 10 and SEQ ID NO 12. Enzyme activity assays were performed in a buffer composed of a final concentration of 50 mM HEPES buffer (pH=7.5), 10 mM adipate semialdehyde, 10 mM L-alanine and 100 μM pyridoxyl 5′ phosphate. Each enzyme activity assay reaction was initiated by adding a cell free extract of the ω-transaminase gene product or the empty vector control to the assay buffer containing the adipate semialdehyde and incubated at 25° C. for 4 h, with shaking at 250 rpm. The formation of pyruvate was quantified via RP-HPLC.

Molecule: SEQ ID NO 10: Rhodobacter sphaeroides ω-transaminase (Genbank Accession No. ABA81135.1)
- ω-transaminase activity: acceptance of 6-aminohexanoate as substrate (formation of L-alanine from pyruvate, RP-HPLC) [1]: accepted 6-aminohexanote as substrate
- ω-transaminase activity: acceptance of adipate semialdehyde as substrate (formation of pyruvate, RP-HPLC) [2]: accepted adipate semialdehyde as substrate

B1: SEQ ID NO 7: Chromobacterium violaceum ω-transaminase (Genbank Accession No. AAQ59697.1) (protein, listed as Chromobacterium violaceum)
chain: MQKQRTTSQWRELDAAHHLHPFTDTASLNQAGARVMTRGEGVYLWDSEGNKIIDGMAGLWCVNVGYGRKDFAEAARRQMEELPFYNTFFKTTHPAVVELSSLLAEVTPAGFDRVFYTNSGSESVDTMIRMVRRYWDVQGKPEKKTLIGRWNGYHGSTIGGASLGGMKYMHEQGDLPIPGMAHIEQPWWYKHGKDMTPDEFGVVAARWLEEKILEIGADKVAAFVGEPIQGAGGVIVPPATYWPEIERICRKYDVLLVADEVICGFGRTGEWFGHQHFGFQPDLFTAAKGLSSGYLPIGAVFVGKRVAEGLIAGGDFNHGFTYSGHPVCAAVAHANVAALRDEGIVQRVKDDIGPYMQKRWRETFSRFEHVDDVRGVGMVQAFTLVKNKAKRELFPDFGEIGTLCRDIFFRNNLIMRACGDHIVSAPPLVMTRAEVDEMLAVAERCLEEFEQTLKARGLA
- ω-transaminase activity: acceptance of 6-aminohexanoate as substrate (formation of L-alanine from pyruvate, RP-HPLC) [1]: accepted 6-aminohexanote as substrate
- ω-transaminase activity: acceptance of adipate semialdehyde as substrate (formation of pyruvate, RP-HPLC) [2]: accepted adipate semialdehyde as substrate

B2: SEQ ID NO 9: Pseudomonas syringae ω-transaminase (Genbank Accession No. AAY39893.1) (protein, listed as Pseudomonas syringae)
chain: MSANNPQTLEWQALSSEHHLAPFSDYKQLKEKGPRIITRAEGVYLWDSEGNKILDGMSGLWCVAIGYGREELADAASKQMRELPYYNLFFQTAHPPVLELAKAISDIAPEGMNHVFFTGSGSEGNDTMLRMVRHYWALKGQPNKKTIISRVNGYHGSTVAGASLGGMTYMHEQGDLPIPGVVHIPQPYWFGEGGDMTPDEFGIWAAEQLEKKILELGVENVGAFIAEPIQGAGGVIVPPDSYWPKIKEILSRYDILFAADEVICGFGRTSEWFGSDFYGLRPDMMTIAKGLTSGYVPMGGLIVRDEIVAVLNEGGDFNHGFTYSGHPVAAAVALENIRILREEKIVERVRSETAPYLQKRLRELSDHPLVGEVRGVGLLGAIELVKDKTTRERYTDKGAGMICRTFCFDNGLIMRAVGDTMIIAPPLVISFAQIDELVEKARTCLDLTLAVLQG
- ω-transaminase activity: acceptance of 6-aminohexanoate as substrate (formation of L-alanine from pyruvate, RP-HPLC) [1]: accepted 6-aminohexanote as substrate
- ω-transaminase activity: acceptance of adipate semialdehyde as substrate (formation of pyruvate, RP-HPLC) [2]: accepted adipate semialdehyde as substrate

B3: SEQ ID NO 12: Vibrio Fluvialis ω-transaminase (Genbank Accession No. AEA39183.1) (protein)
chain: MNKPQSWEARAETYSLYGFTDMPSLHQRGTVVVTHGEGPYIVDVNGRRYLDANSGLWNMVAGFDHKGLIDAAKAQYERFPGYHAFFGRMSDQTVMLSEKLVEVSPFDSGRVFYTNSGSEANDTMVKMLWFLHAAEGKPQKRKILTRWNAYHGVTAVSASMTGKPYNSVFGLPLPGFVHLTCPHYWRYGEEGETEEQFVARLARELEETIQREGADTIAGFFAEPVMGAGGVIPPAKGYFQAILPILRKYDIPVISDEVICGFGRTGNTWGCVTYDFTPDAIISSKNLTAGFFPMGAVILGPELSKRLETAIEAIEEFPHGFTASGHPVGCAIALKAIDVVMNEGLAENVRRLAPRFEERLKHIAERPNIGEYRGIGFMWALEAVKDKASKTPFDGNLSVSERIANTCTDLGLICRPLGQSVVLCPPFILTEAQMDEMFDKLEKALDKVFAEVA
modifications: Vibrio Fluvialis
- ω-transaminase activity: acceptance of 6-aminohexanoate as substrate (formation of L-alanine from pyruvate, RP-HPLC) [1]: accepted 6-aminohexanote as substrate
- ω-transaminase activity: acceptance of adipate semialdehyde as substrate (formation of pyruvate, RP-HPLC) [2]: accepted adipate semialdehyde as substrate

B4: SEQ ID NO 8: Pseudomonas aeruginosa ω-transaminase (Genbank Accession No. AAG08191.1) (protein, listed as Pseudomonas aeruginosa)
chain: MNARLHATSPLGDADLVRADQAHYMHGYHVFDDHRVNGSLNIAAGDGAYIYDTAGNRYLDAVGGMWCTNIGLGREEMARTVAEQTRLLAYSNPFCDMANPRAIELCRKLAELAPGDLDHVFLTTGGSTAVDTAIRLMHYYQNCRGKRAKKHVITRINAYHGSTFLGMSLGGKSADRPAEFDFLDERIHHLACPYYYRAPEGLGEAEFLDGLVDEFERKILELGADRVGAFISEPVFGSGGVIVPPAGYHRRMWELCQRYDVLYISDEVVTSFGRLGHFFASQAVFGVQPDIILTAKGLTSGYQPLGACIFSRRIWEVIAEPDKGRCFSHGFTYSGHPVACAAALKNIEIIEREGLLAHADEVGRYFEERLQSLRDLPIVGDVRGMRFMACVEFVADKASKALFPESLNIGEWVHLRAQKRGLLVRPIVHLNVMSPPLILTREQVDTVVRVLRESIEETVEDLVRAGHR
- ω-transaminase activity: acceptance of adipate semialdehyde as substrate (formation of pyruvate, RP-HPLC) [2]: accepted adipate semialdehyde as substrate
